Data published in publication PMC2758918 (Nature structural & molecular biology, 2009).
Where a chain is given by its changes, count along the chain named. Names and notes keep the numbering of the source.

B1: zinc transporter YiiP from Escherichia coli (natural protein, UniProt P69380 1-300, looked up)
chain: MNQSYGRLVSRAAIAATAMASLLLLIKIFAWWYTGSVSILAALVDSLVDIGASLTNLLVVRYSLQPADDNHSFGHGKAESLAALAQSMFISGSALFLFLTGIQHLISPTPMTDPGVGVIVTIVALICTIILVSFQRWVVRRTQSQAVRADMLHYQSDVMMNGAILLALGLSWYGWHRADALFALGIGIYILYSALRMGYEAVQSLLDRALPDEERQEIIDIVTSWPGVSGAHDLRTRQSGPTRFIQIHLEMEDSLPLVQAHMVADQVEQAILRRFPGSDVIIHQDPCSVVPREGKRSMLS
modifications: ethyl mercury phosphate or thiomerosal bound to C127 (crystal derivatives)
B2: YiiP^C127V doubly labeled with Alexa-488 and Alexa-647 (natural protein, Escherichia coli, UniProt P69380 1-300, looked up)
chain: B1 chain with C127V
modifications: Alexa donor-acceptor pair (Alexa-488, Alexa-647) on cysteine (Cys287)

Assays:
crystal structure = target: the molecule itself; assay: crystal structure
FRET or BRET = target: the molecule itself; assay: FRET or BRET

| Protein | stoichiometry N (crystal structure) | binding result (FRET or BRET) |
| --- | --- | --- |
| B1 | 2 |  |
| B2 |  | binds |
